Starred links: 1 amine or outer side, 2 acyl side, 3 side chain; linkers in the order of their positions; H or OH if unused. Positions of bridges follow the written chain, without caps; N, C: chain ends. Non-standard residues stand in square brackets, D forms with d. Groups on a side chain read outwards from the residue. *: point of attachment. DOTA = O=C(O)CN1CCN(CC(=O)O)CCN(CC(=O)*)CCN(CC(=O)O)CC1; mXylylene = c1cc(C[*:1])cc(C[*:2])c1; tBuAla = CC(C)(C)C[C@H](N)C(=O)O; Aic = NC1(C(=O)O)Cc2ccccc2C1; Pen = CC(C)(S)[C@H](N)C(=O)O; Propanoyl(3-OH) = O=C(CCO)*; 4Amb = NCc1ccc(C(=O)O)cc1; Isovaleryl = CC(C)CC(=O)*; Ac6c = NC1(C(=O)O)CCCCC1; 4Amc = not defined here; APAc = not defined here; Ac5c = NC1(C(=O)O)CCCC1; Thp = NC1(C(=O)O)CCOCC1; Apr = not defined here; AEEA = NCCOCCOCC(=O)O; Nlys = NCCCCNCC(=O)O; Sar = CNCC(=O)O
B1: 3BP-3729 (peptide)
peptide: Ac-YCE[dP]DWLTWSC-NH2
modifications: linker 2-11 via 3MeBn
notes: also called Ac-Tyr-[Cys(3MeBn)-Glu-pro-Asp-Trp-Leu-Thr-Trp-Ser-Cys]-NH2
B2: 3BP-3587 (peptide)
peptide: {DOTA-APAc}-VYCE[dP]DW[Ac5c]TWSC-NH2
modifications: linker 3-12 via mXylylene; reading uncertain
notes: also called DOTA-APAc-Val-Tyr-[Cys(3MeBn)-Glu-pro-Asp-Trp-Eca-Thr-Trp-Ser-Cys]-NH2
B3: 3BP-3569 (peptide)
peptide: Isovaleryl-YCE[dP]DWLTWSC-NH2
modifications: linker 2-11 via mXylylene
SMILES: CC(C)CC(=O)N[C@@H](Cc1ccc(O)cc1)C(=O)N[C@H]1CSCc2cccc(c2)CSC[C@@H](C(N)=O)NC(=O)[C@H](CO)NC(=O)[C@H](Cc2c[nH]c3ccccc23)NC(=O)[C@H]([C@@H](C)O)NC(=O)[C@H](CC(C)C)NC(=O)[C@H](Cc2c[nH]c3ccccc23)NC(=O)[C@H](CC(=O)O)NC(=O)[C@H]2CCCN2C(=O)[C@H](CCC(=O)O)NC1=O
notes: also called Iva-Tyr-[Cys(3MeBn)-Glu-pro-Asp-Trp-Leu-Thr-Trp-Ser-Cys]-NH2
B4: 3BP-3740 (peptide)
peptide: Isovaleryl-YCE[dP]DWLTWE([Apr-AEEA-DOTA])C-NH2
modifications: linker 2-11 via 3MeBn; reading uncertain
notes: also called Iva-Tyr-[Cys(3MeBn)-Glu-pro-Asp-Trp-Leu-Thr-Trp-Glu(NH-Apr-O2Oc-DOTA′)-Cys]-NH2
B5: 3BP-3842 (peptide)
peptide: {Propanoyl(3-OH)}-YCE[dP]DWLTWE([Apr-DOTA])C-NH2
modifications: linker 2-11 via mXylylene; reading uncertain
notes: also called 3OHPr-Tyr-[Cys(3MeBn)-Glu-pro-Asp-Trp-Leu-Thr-Trp-Glu(NH-Apr-DOTA′)-Cys]-NH2
B6: 3BP-3728 (peptide)
peptide: Isovaleryl-ECE[dP]DWLTWSC-NH2
modifications: linker 2-11 via 3MeBn
notes: also called Iva-Glu-[Cys(3MeBn)-Glu-pro-Asp-Trp-Leu-Thr-Trp-Ser-Cys]-NH2
B7: 3BP-3727 (peptide)
peptide: Isovaleryl-DCE[dP]DWLTWSC-NH2
modifications: linker 2-11 via 3MeBn
notes: also called Iva-Asp-[Cys(3MeBn)-Glu-pro-Asp-Trp-Leu-Thr-Trp-Ser-Cys]-NH2
B8: 3BP-3743 (peptide)
peptide: Isovaleryl-SCE[dP]DWLTWE([Apr-AEEA-DOTA])C-NH2
modifications: linker 2-11 via 3MeBn; reading uncertain
notes: also called Iva-Ser-[Cys(3MeBn)-Glu-pro-Asp-Trp-Leu-Thr-Trp-Glu(NH-Apr-O2Oc-DOTA′)-Cys]-NH2
B9: 3BP-3841 (peptide)
peptide: Ac-YCE[dP]DWLTWE([Apr-DOTA])C-NH2
modifications: linker 2-11 via 3MeBn; reading uncertain
notes: also called Ac-Tyr-[Cys(3MeBn)-Glu-pro-Asp-Trp-Leu-Thr-Trp-Glu(NH-Apr-DOTA′)-Cys]-NH2
B10: 3BP-3742 (peptide)
peptide: Isovaleryl-FCE[dP]DWLTWE([Apr-AEEA-DOTA])C-NH2
modifications: linker 2-11 via 3MeBn; reading uncertain
notes: also called Iva-Phe-[Cys(3MeBn)-Glu-pro-Asp-Trp-Leu-Thr-Trp-Glu(NH-Apr-O2Oc-DOTA′)-Cys]-NH2
B11: 3BP-3492 (peptide)
peptide: Ac-VYCE[dP]DWLTWA[Pen]-NH2
modifications: linker 3-12 via mXylylene
SMILES: CC(=O)N[C@H](C(=O)N[C@@H](Cc1ccc(O)cc1)C(=O)N[C@H]1CSCc2cccc(c2)CSC(C)(C)[C@@H](C(N)=O)NC(=O)[C@H](C)NC(=O)[C@H](Cc2c[nH]c3ccccc23)NC(=O)[C@H]([C@@H](C)O)NC(=O)[C@H](CC(C)C)NC(=O)[C@H](Cc2c[nH]c3ccccc23)NC(=O)[C@H](CC(=O)O)NC(=O)[C@H]2CCCN2C(=O)[C@H](CCC(=O)O)NC1=O)C(C)C
notes: also called Ac-Val-Tyr-[Cys(3MeBn)-Glu-pro-Asp-Trp-Leu-Thr-Trp-Ala-Pen]-NH2
B12: 3BP-3586 (peptide)
peptide: {DOTA-APAc}-VYCE[dP]DW[Aic]TWSC-NH2
modifications: linker 3-12 via mXylylene; reading uncertain
notes: also called DOTA-APAc-Val-Tyr-[Cys(3MeBn)-Glu-pro-Asp-Trp-Aic-Thr-Trp-Ser-Cys]-NH2
B13: 3BP-3562 (peptide)
peptide: Ac-VYCE[Nlys](DOTA)DWLTWAC-NH2
modifications: linker 3-12 via mXylylene
notes: also called Ac-Val-Tyr-[Cys(3MeBn)-Glu-Nlys(DOTA)-Asp-Trp-Leu-Thr-Trp-Ala-Cys]-NH2
B14: 3BP-3493 (peptide)
peptide: Ac-VYCE[dP]DW[tBuAla]TWA[Pen]-NH2
modifications: linker 3-12 via mXylylene
SMILES: CC(=O)N[C@H](C(=O)N[C@@H](Cc1ccc(O)cc1)C(=O)N[C@H]1CSCc2cccc(c2)CSC(C)(C)[C@@H](C(N)=O)NC(=O)[C@H](C)NC(=O)[C@H](Cc2c[nH]c3ccccc23)NC(=O)[C@H]([C@@H](C)O)NC(=O)[C@H](CC(C)(C)C)NC(=O)[C@H](Cc2c[nH]c3ccccc23)NC(=O)[C@H](CC(=O)O)NC(=O)[C@H]2CCCN2C(=O)[C@H](CCC(=O)O)NC1=O)C(C)C
notes: also called Ac-Val-Tyr-[Cys(3MeBn)-Glu-pro-Asp-Trp-Npg-Thr-Trp-Ala-Pen]-NH2
B15: 3BP-3501 (peptide)
peptide: Ac-VYCE[Sar]DW[tBuAla]TWA[Pen]-NH2
modifications: linker 3-12 via mXylylene
SMILES: CC(=O)N[C@H](C(=O)N[C@@H](Cc1ccc(O)cc1)C(=O)N[C@H]1CSCc2cccc(c2)CSC(C)(C)[C@@H](C(N)=O)NC(=O)[C@H](C)NC(=O)[C@H](Cc2c[nH]c3ccccc23)NC(=O)[C@H]([C@@H](C)O)NC(=O)[C@H](CC(C)(C)C)NC(=O)[C@H](Cc2c[nH]c3ccccc23)NC(=O)[C@H](CC(=O)O)NC(=O)CN(C)C(=O)[C@H](CCC(=O)O)NC1=O)C(C)C
notes: also called Ac-Val-Tyr-[Cys(3MeBn)-Glu-Nmg-Asp-Trp-Npg-Thr-Trp-Ala-Pen]-NH2
B16: 3BP-3585 (peptide)
peptide: {DOTA-APAc}-VYCE[dP]DW[Thp]TWSC-NH2
modifications: linker 3-12 via mXylylene; reading uncertain
notes: also called DOTA-APAc-Val-Tyr-[Cys(3MeBn)-Glu-pro-Asp-Trp-Thp-Thr-Trp-Ser-Cys]-NH2
B17: 3BP-3491 (peptide)
peptide: Ac-VYCE[dP]DW[tBuAla]TWSC-NH2
modifications: linker 3-12 via mXylylene
SMILES: CC(=O)N[C@H](C(=O)N[C@@H](Cc1ccc(O)cc1)C(=O)N[C@H]1CSCc2cccc(c2)CSC[C@@H](C(N)=O)NC(=O)[C@H](CO)NC(=O)[C@H](Cc2c[nH]c3ccccc23)NC(=O)[C@H]([C@@H](C)O)NC(=O)[C@H](CC(C)(C)C)NC(=O)[C@H](Cc2c[nH]c3ccccc23)NC(=O)[C@H](CC(=O)O)NC(=O)[C@H]2CCCN2C(=O)[C@H](CCC(=O)O)NC1=O)C(C)C
notes: also called Ac-Val-Tyr-[Cys(3MeBn)-Glu-pro-Asp-Trp-Npg-Thr-Trp-Ser-Cys]-NH2
B18: 3BP-3431 (peptide)
peptide: {DOTA-4Amc}-VYCE[dP]DW[tBuAla]TWAC-NH2
modifications: linker 3-12 via mXylylene; reading uncertain
notes: also called DOTA-4Amc-Val-Tyr-[Cys(3MeBn)-Glu-pro-Asp-Trp-Npg-Thr-Trp-Ala-Cys]-NH2
B19: 3BP-3490 (peptide)
peptide: Ac-VYCE[dP]DW[tBuAla]TWAC-NH2
modifications: linker 3-12 via mXylylene
SMILES: CC(=O)N[C@H](C(=O)N[C@@H](Cc1ccc(O)cc1)C(=O)N[C@H]1CSCc2cccc(c2)CSC[C@@H](C(N)=O)NC(=O)[C@H](C)NC(=O)[C@H](Cc2c[nH]c3ccccc23)NC(=O)[C@H]([C@@H](C)O)NC(=O)[C@H](CC(C)(C)C)NC(=O)[C@H](Cc2c[nH]c3ccccc23)NC(=O)[C@H](CC(=O)O)NC(=O)[C@H]2CCCN2C(=O)[C@H](CCC(=O)O)NC1=O)C(C)C
notes: also called Ac-Val-Tyr-[Cys(3MeBn)-Glu-pro-Asp-Trp-Npg-Thr-Trp-Ala-Cys]-NH2
B20: 3BP-3503 (peptide)
peptide: Ac-VYCE[dP]DW[Ac6c]TWAC-NH2
modifications: linker 3-12 via mXylylene
SMILES: CC(=O)N[C@H](C(=O)N[C@@H](Cc1ccc(O)cc1)C(=O)N[C@H]1CSCc2cccc(c2)CSC[C@@H](C(N)=O)NC(=O)[C@H](C)NC(=O)[C@H](Cc2c[nH]c3ccccc23)NC(=O)[C@H]([C@@H](C)O)NC(=O)C2(CCCCC2)NC(=O)[C@H](Cc2c[nH]c3ccccc23)NC(=O)[C@H](CC(=O)O)NC(=O)[C@H]2CCCN2C(=O)[C@H](CCC(=O)O)NC1=O)C(C)C
notes: also called Ac-Val-Tyr-[Cys(3MeBn)-Glu-pro-Asp-Trp-Egz-Thr-Trp-Ala-Cys]-NH2
B21: 3BP-3474 (peptide)
peptide: Ac-VYCE[dP]DWLTWAC[AEEA]K(DOTA)-NH2
modifications: linker 3-12 via mXylylene
SMILES: CC(=O)N[C@H](C(=O)N[C@@H](Cc1ccc(O)cc1)C(=O)N[C@H]1CSCc2cccc(c2)CSC[C@@H](C(=O)NCCOCCOCC(=O)N[C@@H](CCCCNC(=O)CN2CCN(CC(=O)O)CCN(CC(=O)O)CCN(CC(=O)O)CC2)C(N)=O)NC(=O)[C@H](C)NC(=O)[C@H](Cc2c[nH]c3ccccc23)NC(=O)[C@H]([C@@H](C)O)NC(=O)[C@H](CC(C)C)NC(=O)[C@H](Cc2c[nH]c3ccccc23)NC(=O)[C@H](CC(=O)O)NC(=O)[C@H]2CCCN2C(=O)[C@H](CCC(=O)O)NC1=O)C(C)C
notes: also called Ac-Val-Tyr-[Cys(3MeBn)-Glu-pro-Asp-Trp-Leu-Thr-Trp-Ala-Cys]-O2Oc-Lys(DOTA)-NH2
B22: 3BP-3477 (peptide)
peptide: Ac-VYCE[dP]DWLTWAC[4Amb]K(DOTA)-NH2
modifications: linker 3-12 via mXylylene
SMILES: CC(=O)N[C@H](C(=O)N[C@@H](Cc1ccc(O)cc1)C(=O)N[C@H]1CSCc2cccc(c2)CSC[C@@H](C(=O)NCc2ccc(C(=O)N[C@@H](CCCCNC(=O)CN3CCN(CC(=O)O)CCN(CC(=O)O)CCN(CC(=O)O)CC3)C(N)=O)cc2)NC(=O)[C@H](C)NC(=O)[C@H](Cc2c[nH]c3ccccc23)NC(=O)[C@H]([C@@H](C)O)NC(=O)[C@H](CC(C)C)NC(=O)[C@H](Cc2c[nH]c3ccccc23)NC(=O)[C@H](CC(=O)O)NC(=O)[C@H]2CCCN2C(=O)[C@H](CCC(=O)O)NC1=O)C(C)C
notes: also called Ac-Val-Tyr-[Cys(3MeBn)-Glu-pro-Asp-Trp-Leu-Thr-Trp-Ala-Cys]-Pamb-Lys(DOTA)-NH2
B23: 3BP-3584 (peptide)
peptide: {DOTA-APAc}-VYCE[dP]DW[Ac6c]TWSC-NH2
modifications: linker 3-12 via mXylylene; reading uncertain
notes: also called DOTA-APAc-Val-Tyr-[Cys(3MeBn)-Glu-pro-Asp-Trp-Egz-Thr-Trp-Ser-Cys]-NH2
B24: 3BP-3873 (peptide)
peptide: Ac-SYCE[dP]DWLTWE([Apr-DOTA])C-NH2
modifications: linker 3-12 via mXylylene; reading uncertain
notes: also called Ac-Ser-Tyr-[Cys(3MeBn)-Glu-pro-Asp-Trp-Leu-Thr-Trp-Glu(NH-Apr-DOTA′)-Cys]-NH2

Molecular target: human carbonic anhydrase 9 (CAIX) (human, UniProt Q16790 38-459)
Test: FACS competition on HT-29 cells against tracer 3BP-2776; pIC50 category A = pIC50 >8.0
Protocol: CAIX-expressing human HT-29 colorectal cancer cells (DSMZ, RRID: CVCL_0320) were cultured in McCoys's 5A modified medium (Biochrom, #F1015) including 10% fetal calf serum (FCS), 2 mM L-glutamine, 100 U/ml penicillin and 100 μg/mL streptomycin. Cells were detached with Accutase (Biolegend, #423201) and washed in FACS buffer (PBS including 1% FCS). Cells were diluted in FACS buffer to a final concentration of 500.000 cells per ml. 200 μL of the cell suspension were transferred to a u-shaped non-binding 96-well plate (Greiner) and cells were washed in ice-cold FACS buffer.
When biotinylated compounds were used an additional incubation step with 1 μg/mL APC-Streptavidin (Miltenyi; #130-106-791) in 50 μL FACS buffer for 30 minutes on ice was performed.
Cells were washed twice with ice-cold FACS buffer and analyzed in an Attune NxT flow cytometer (Thermo Fisher). Median fluorescence intensities (MFI) of the APC/Cy5-channel were calculated by Attune NxT software.

Binder | pIC50
B1 | > 8 pic50
B2 | > 8 pic50
B3 | > 8 pic50
B4 | > 8 pic50
B5 | > 8 pic50
B6 | > 8 pic50
B7 | > 8 pic50
B8 | > 8 pic50
B9 | > 8 pic50
B10 | > 8 pic50
B11 | > 8 pic50
B12 | > 8 pic50
B13 | > 8 pic50
B14 | > 8 pic50
B15 | > 8 pic50
B16 | > 8 pic50
B17 | > 8 pic50
B18 | > 8 pic50
B19 | > 8 pic50
B20 | > 8 pic50
B21 | > 8 pic50
B22 | > 8 pic50
B23 | > 8 pic50
B24 | > 8 pic50
